Experimental data taken from publication PMC10397247.
Where two headings read alike, the source gives them in different places.

Key:
[1] = target: T1, 4H496-bA; assay: two-hybrid library CCNG1;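 also: natural log of median RNA to DNA barcode read ratio; higher means stronger binding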
T1 chain: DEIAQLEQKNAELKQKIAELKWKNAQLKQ

[2] = target: T2, P8A-bS; assay: two-hybrid library CCNG1;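 also: natural log of median RNA to DNA barcode read ratio; higher means stronger binding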
T2 chain: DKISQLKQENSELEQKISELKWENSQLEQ

[3] = target: T3, P7A-bS; assay: two-hybrid library CCNG1;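 also: natural log of median RNA to DNA barcode read ratio; higher means stronger binding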
T3 chain: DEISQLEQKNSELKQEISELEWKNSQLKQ

[4] = target: T4, P6A-bS; assay: two-hybrid library CCNG1;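 also: natural log of median RNA to DNA barcode read ratio; higher means stronger binding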
T4 chain: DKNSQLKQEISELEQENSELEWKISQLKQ

[5] = target: T5, P9A-bS; assay: two-hybrid library CCNG1;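 also: natural log of median RNA to DNA barcode read ratio; higher means stronger binding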
T5 chain: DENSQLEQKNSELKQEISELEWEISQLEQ

[6] = target: T6, 4H470-bH; assay: two-hybrid library CCNG1;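 also: natural log of median RNA to DNA barcode read ratio; higher means stronger binding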
T6 chain: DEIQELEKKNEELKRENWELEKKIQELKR

[7] = target: T7, 4H3961-bH; assay: two-hybrid library CCNG1; conditions: mean of both orientations
T7 chain: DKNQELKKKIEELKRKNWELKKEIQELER

[8] = target: T8, 4H2888-AA; assay: two-hybrid library CCmax; conditions: mean of both orientations
T8 chain: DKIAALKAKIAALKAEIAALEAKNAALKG

[9] = target: T9, 4H43-AA; assay: two-hybrid library CCmax
T9 chain: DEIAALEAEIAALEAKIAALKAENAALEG

[10] = target: 4H_GCN4; assay: two-hybrid library CCmax; conditions: mean of both orientations
[11] = target: T10, O11-AA; assay: two-hybrid library CCmax; conditions: mean of both orientations
T10 chain: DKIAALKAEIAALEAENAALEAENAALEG

[12] = target: T11, 4H3625-AA; assay: two-hybrid library CCmax; conditions: mean of both orientations
T11 chain: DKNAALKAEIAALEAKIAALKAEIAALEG

[13] = target: T12, 4H3590-AA; assay: two-hybrid library CCmax; conditions: mean of both orientations
T12 chain: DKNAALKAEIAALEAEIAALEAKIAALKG

[14] = target: T13, 4H_BCR; assay: two-hybrid library CCmax; conditions: mean of both orientations
T13 chain: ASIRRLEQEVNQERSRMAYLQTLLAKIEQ

[15] = target: T14, O14-AA; assay: two-hybrid library CCmax; conditions: mean of both orientations
T14 chain: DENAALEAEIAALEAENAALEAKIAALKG

[16] = target: T15, 4H2736-AA; assay: two-hybrid library CCmax
T15 chain: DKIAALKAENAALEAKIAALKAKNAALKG

[17] = target: T16, 4H384-AA; assay: two-hybrid library CCmax; conditions: mean of both orientations
T16 chain: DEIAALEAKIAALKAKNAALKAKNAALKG

[18] = target: GCN2_T; assay: two-hybrid library CCmax
[19] = target: T17, 4H510-AA; assay: two-hybrid library CCmax; conditions: mean of both orientations
T17 chain: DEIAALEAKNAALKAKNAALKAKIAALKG

[20] = target: T18, 4H451-AA; assay: two-hybrid library CCmax; conditions: mean of both orientations
T18 chain: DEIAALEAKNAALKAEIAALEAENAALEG

[21] = target: T19, 4H337-AA; assay: two-hybrid library CCmax; conditions: mean of both orientations
T19 chain: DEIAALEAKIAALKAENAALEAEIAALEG

[22] = target: T20, 4H3587-AA; assay: two-hybrid library CCmax; conditions: mean of both orientations
T20 chain: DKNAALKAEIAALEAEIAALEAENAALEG

[23] = target: T21, 4H_APH; assay: two-hybrid library CCmax; conditions: mean of both orientations
T21 chain: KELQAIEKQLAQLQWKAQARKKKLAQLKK

[24] = target: T22, 4H3905-AA; assay: two-hybrid library CCmax; conditions: mean of both orientations
T22 chain: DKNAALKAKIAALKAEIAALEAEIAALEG

[25] = target: T23, 4H3049-AA; assay: two-hybrid library CCmax; conditions: mean of both orientations
T23 chain: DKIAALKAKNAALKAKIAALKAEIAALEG

[26] = target: T24, 4H4038-AA; assay: two-hybrid library CCmax; conditions: mean of both orientations
T24 chain: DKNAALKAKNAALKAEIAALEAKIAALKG

[27] = target: T25, O13-AA; assay: two-hybrid library CCmax; conditions: mean of both orientations
T25 chain: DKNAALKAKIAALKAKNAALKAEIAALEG

[28] = target: T26, 4H775-AA; assay: two-hybrid library CCmax; conditions: mean of both orientations
T26 chain: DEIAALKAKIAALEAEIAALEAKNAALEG

[29] = target: T27, 4H2873-AA; assay: two-hybrid library CCmax; conditions: mean of both orientations
T27 chain: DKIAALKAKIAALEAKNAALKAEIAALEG

[30] = target: T28, 4H3134-AA; assay: two-hybrid library CCmax; conditions: mean of both orientations
T28 chain: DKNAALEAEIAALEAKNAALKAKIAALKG

[31] = target: T29, 4H2985-AA; assay: two-hybrid library CCmax
T29 chain: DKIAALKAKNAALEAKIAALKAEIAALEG

[32] = target: T30, 4H390-AA; assay: two-hybrid library CCmax; conditions: mean of both orientations
T30 chain: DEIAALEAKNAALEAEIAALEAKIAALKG

[33] = target: T31, 4H3940-AA; assay: two-hybrid library CCmax; conditions: mean of both orientations
T31 chain: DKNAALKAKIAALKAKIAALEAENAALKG

[34] = target: T32, 4H278-AA; assay: two-hybrid library CCmax; conditions: mean of both orientations
T32 chain: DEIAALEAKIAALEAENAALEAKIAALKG

[35] = target: T33, 4H87-AA; assay: two-hybrid library CCmax; conditions: mean of both orientations
T33 chain: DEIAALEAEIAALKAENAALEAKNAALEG

[36] = target: T34, 4H816-AA; assay: two-hybrid library CCmax; conditions: mean of both orientations
T34 chain: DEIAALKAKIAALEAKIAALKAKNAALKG

[37] = target: T35, 4H2705-AA; assay: two-hybrid library CCmax
T35 chain: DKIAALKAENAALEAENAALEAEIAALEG

[38] = target: T36, 4H2758-AA; assay: two-hybrid library CCmax; conditions: mean of both orientations
T36 chain: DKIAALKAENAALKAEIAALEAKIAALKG

[39] = target: T37, 4H3409-AA; assay: two-hybrid library CCmax; conditions: mean of both orientations
T37 chain: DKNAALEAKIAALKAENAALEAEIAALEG

[40] = target: T38, 4H56-bA; assay: two-hybrid library CCNG1
T38 chain: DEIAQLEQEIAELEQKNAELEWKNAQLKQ

[41] = target: T39, 4H730-bA; assay: two-hybrid library CCNG1
T39 chain: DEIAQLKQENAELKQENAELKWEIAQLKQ

[42] = target: T40, 4H349-bA; assay: two-hybrid library CCNG1
T40 chain: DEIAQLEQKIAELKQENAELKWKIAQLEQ

[43] = target: T41, 4H949-bA; assay: two-hybrid library CCNG1
T41 chain: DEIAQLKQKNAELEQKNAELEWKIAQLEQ

[44] = target: T42, 4H796-bA; assay: two-hybrid library CCNG1
T42 chain: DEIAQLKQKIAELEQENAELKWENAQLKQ

[45] = target: T43, O15-bP; assay: two-hybrid library CCNG1
T43 chain: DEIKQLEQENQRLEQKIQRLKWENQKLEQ

[46] = target: T44, 4H932-bA; assay: two-hybrid library CCNG1
T44 chain: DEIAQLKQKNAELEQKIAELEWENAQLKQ

Chain of 4H_GCN4 (chain, as listed by the source): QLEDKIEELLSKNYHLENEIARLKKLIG

Q: Which interaction score [1] does the source give for DEIAQLEQKNAELKQKIAELKWKNAQLKQ [4H496-bA] here?
A: -0.521

Q: How did the interaction score [2] turn out when DKNSQLKQEISELEQENSELEWKISQLKQ [P6A-bS] was run?
A: 0.0461

Q: What about the interaction score [3] of the same binder?
A: 1.24

Q: What about the interaction score [4] of the same binder?
A: -2.31

Q: What about the interaction score [5] of the same binder?
A: -0.77

Q: How did the interaction score [6] turn out when DKNQELKKKIEELKRKNWELKKEIQELER [4H3961-bH] was run?
A: 1.3

Q: What about the interaction score [7] of the same binder?
A: -1.2

Q: For DKIAALKAENAALEAKIAALKAKNAALKG [4H2736-AA], which interaction score [8] is on record?
A: -0.685

Q: What about the interaction score [9] of the same binder?
A: -0.422

Q: What about the interaction score [10] of the same binder?
A: -2.46

Q: And the interaction score [11]?
A: -0.615

Q: And the interaction score [12]?
A: 0.218

Q: What about the interaction score [13] of the same binder?
A: -0.712

Q: What about the interaction score [14] of the same binder?
A: -1.69

Q: And the interaction score [15]?
A: -0.38

Q: And the interaction score [16]?
A: -1.62

Q: And the interaction score [17]?
A: -1.67

Q: What about the interaction score [18] of the same binder?
A: -0.66

Q: And the interaction score [19]?
A: -1.15

Q: And the interaction score [20]?
A: 0.882

Q: What about the interaction score [21] of the same binder?
A: -0.315

Q: And the interaction score [22]?
A: -1.26

Q: What about the interaction score [23] of the same binder?
A: -1.33

Q: What about the interaction score [24] of the same binder?
A: -1.18

Q: What about the interaction score [25] of the same binder?
A: 0.275

Q: And the interaction score [26]?
A: -0.154

Q: And the interaction score [27]?
A: 0.351

Q: How did the interaction score [8] turn out when DKIAALKAENAALEAENAALEAEIAALEG [4H2705-AA] was run?
A: -1.97

Q: And the interaction score ([9]; mean of both orientations)?
A: -1.82

Q: And the interaction score [10]?
A: -1.71

Q: And the interaction score [11]?
A: -1.81

Q: What about the interaction score [28] of the same binder?
A: -1.89

Q: What about the interaction score [12] of the same binder?
A: -2.01

Q: And the interaction score [29]?
A: -1.27

Q: What about the interaction score [13] of the same binder?
A: -1.6

Q: And the interaction score [14]?
A: -1.75

Q: And the interaction score [15]?
A: -1.68

Q: What about the interaction score ([16]; mean of both orientations) of the same binder?
A: -1.45

Q: What about the interaction score [17] of the same binder?
A: 1.45

Q: And the interaction score [30]?
A: -0.0637

Q: What about the interaction score [31] of the same binder?
A: -0.31

Q: What about the interaction score [32] of the same binder?
A: -0.544

Q: And the interaction score ([18]; mean of both orientations)?
A: -1.4

Q: And the interaction score [19]?
A: 1.88

Q: What about the interaction score [20] of the same binder?
A: -1.84

Q: And the interaction score [33]?
A: -1.62

Q: And the interaction score [21]?
A: -0.896

Q: And the interaction score [34]?
A: -0.473

Q: What about the interaction score [35] of the same binder?
A: -1.62

Q: And the interaction score [22]?
A: -1.78

Q: What about the interaction score [23] of the same binder?
A: -1.6

Q: And the interaction score [36]?
A: -1.52

Q: What about the interaction score [24] of the same binder?
A: -1.49

Q: And the interaction score [37]?
A: -1.4

Q: What about the interaction score [25] of the same binder?
A: 1.67

Q: What about the interaction score [38] of the same binder?
A: -1.01

Q: And the interaction score [26]?
A: 0.153

Q: And the interaction score [27]?
A: -1.17

Q: What about the interaction score [39] of the same binder?
A: -1.62

Q: Which results are given for DEIAQLEQKIAELKQENAELKWKIAQLEQ [4H349-bA]?
A: interaction score [40]: -0.982; interaction score [41]: -0.854; interaction score [42]: 0.649; interaction score [43]: -1.01; interaction score [44]: -0.458; interaction score [45]: 0.584; interaction score [46]: -0.919
